Measurements as given in patent publication US20090270309A1, “USE OF LACTOFERRIN FRAGMENTS AND HYDROLYSATES” (priority 2005, published 2009).

Columns and labels:
[1] = test system: primary rat osteoblasts; assay: Proliferation of primary rat osteoblasts (cell counts and [3H]-thymidine incorporation); format: cell-based; details: for Mitogenic / proliferative effect on primary osteoblasts (in words): figure legends, significantly different from control by ANOVA, post hoc Dunnett's test; for Dose (ug/mL): minimum dose range that stimulates osteoblast proliferation: primary rat osteoblasts, Table 1
Procedure: Osteoblasts were isolated by collagenase digestion from 20-day fetal rat ? viously described by Lowe, et al. (1991). Calvariae were dissected aseptically, and the frontal and parietal bones were stripped of their periosteum. Only the central portions of the bones, free from suture tissue, were collected. The calvariae were treated twice with phosphate buffered saline (PBS) containing 3 mM EDTA (pH 7.4) for 15 minutes at 37° C. in a shaking water bath. After washing once in PBS, the calvariae were treated twice with 3 ml of 1 mg/ml collagenase for 7 minutes at 37° C. After discarding the supernatants from digestions I and II, the calvariae were treated further two times with 3 ml of 2 mg/ml collagenase (30 mins, 37° C.). The supernatants of digestions III and IV were pooled, centrifuged, and the cells washed in Dulbecco's modified Eagle's medium (DME) with 10% fetal calf serum (FCS), suspended in DME/10% FCS, and placed in […] flasks. The cells were incubated under 5% CO2 and 95% air at 37° C. Confluence was reached by 5-6 days, at which time the cells were subcultured. After trypsinization using trypsin-EDTA (0.05%/0.53 mM), the cells were rinsed in minimum essential medium (MEM) with 5% FCS and resuspended in a fresh medium, then seeded at 5×10^4 cells/ml in 24-well plates (0.5 ml cell suspension per well, i.e., 1.4×10^4 cells/cm^2).
Proliferation studies (cell counts and thymidine incorporation) were performed both in actively growing and non-actively growing cell populations. To produce actively growing cells, sub-confluent populations (24 h after subculturing) were placed in fresh MEM containing 1% FCS and a lactoferrin fragment sample (see Table 1 below). To produce non-actively growing cells, sub-confluent populations were placed in serum-free medium with 0.1% bovine serum albumin plus a lactoferrin fragment sample. Cell numbers were analyzed at 6, 24, and 48 hours after the addition of lactoferrin fragment samples. The cell numbers were determined after detaching cells from the wells by exposure to trypsin/EDTA (0.05%/0.53 mM) for approximately 5 minutes at 37° C. Counting was performed in a haemocytometer chamber. [3H]-thymidine incorporation into actively growing and non-actively growing cells was assessed by pulsing the cells with [3H]-thymidine (1 μCi/well) two hours before the end of the incubation. The experiment was terminated at 6, 24, or 48 hours by washing the cells in MEM containing cold thymidine followed by the addition of 10% trichloroacetic acid. The precipitate was washed twice with ethanol:ether (3:1), and the wells desiccated at room temperature. The ? redissolved in 2 M KOH at 55° C. for 30 min, neutralized with 1 M HCl, and an aliquot counted for radioactivity. For both cell counts and thymidine incorporation, each experiment at each time point was performed at least 4 different times using experimental groups consisting of at least 6 wells.
The osteogenic response seen above was compared with that of insulin-like growth factor 1 (IGF-1), a well-recognized osteoblast mitogen. The magnitudes of response of the lactoferrin fragments were similar to IGF-1 in the same osteoblast cell culture system.

[2] = test system: osteoclast development in a bone marrow culture; assay: Osteoclast development in mouse bone marrow culture (count of multinucleated osteoclast-like cells); format: cell-based; details: for Inhibition of osteoclast development in a bone marrow culture (in words): mouse bone marrow culture, 1 week, ANOVA P<0.0001; for Concentration with significant inhibition of osteoclast development: FIG. 7
Procedure: Bone marrow cultures were used to determine the effect of lactoferrin fragments on osteoclast development. The method used has been previously described (see Cornish, et al., (2001)). Bone marrow was obtained from the long bones of four to six week old Swiss male mice by flushing the marrow cavity with media. The cell suspension was incubated for two hours and the non-adherent cells were plated into 48-well plates and cultured in 1.25 vitamin D3 enriched media for 1 week with lactoferrin fragments at a range of concentrations. Cells were fixed and stained and multinucleated osteoclast-like cells were counted.
A recombinant N-lobe fragment of full length recombinant human lactoferrin (SEQ ID NO. 5) and a lactoferrin C-lobe fragment (SEQ ID NO. 8) were tested. Osteoprotegerin was used as a positive inhibitor control. Full length recombinant human lactoferrin was also tested. The results are shown in FIGS. 6 and 7, as described above.

B1: SEQ ID NO. 5: Recombinant human lactoferrin N-lobe, residues 1-333 of SEQ ID NO. 4, expressed from baby hamster kidney cells (protein)
chain: GRRRRSVQWCAVSQPEATKCFQWQRNMRKVRGPPVSCIKRDSPIQCIQAIAENRADAVTLDGGFIYEAGLAPYKLRPVAAEVYGTERQPRTHYYAVAVVKKGGSFQLNELQGLKSCHTGLRRTAGWNVPIGTLRPFLNWTGPPEPIEAAVARFFSASCVPGADKGQFPNLCRLCAGTGENKCAFSSQEPYFSYSGAFKCLRDGAGDVAFIRESTVFEDLSDEAERDEYELLCPDNTRKPVDKFKDCHLARVPSHAVVARSVNGKEDAIWNLLRQAQEKFGKDKSPKFQLFGSPSGQKDLLFKDSAIGFSRVPPRIDSGLYLGSGYFTAIQNLR
modifications: Recombinant human lactoferrin N-lobe
notes: 4, expressed from baby hamster kidney cells
[1]
  Mitogenic / proliferative effect on primary osteoblasts (in words): osteoblast proliferative effects
  Dose (ug/mL): minimum dose range that stimulates osteoblast proliferation: 0.1 to 10 µg/mL
[2]
  Inhibition of osteoclast development in a bone marrow culture (in words): inhibition of osteoclast development

B2: SEQ ID NO. 8: Bovine lactoferrin C-lobe, residues 285-689 of SEQ ID NO. 2, controlled tryptic hydrolysis (protein, listed as Bos taurus)
chain: SFQLFGSPPGQRDLLFKDSALGFLRIPSKVDSALYLGSRYLTTLKNLRETAEEVKARYTRVVWCAVGPEEQKKCQQWSQQSGQNVTCATASTTDDCIVLVLKGEADALNLDGGYIYTAGKCGLVPVLAENRKSSKHSSLDCVLRPTEGYLAVAVVKKANEGLTWNSLKDKKSCHTAVDRTAGWNIPMGLIVNQTGSCAFDEFFSQSCAPGADPKSRLCALCAGDDQGLDKCVPNSKEKYYGYTGAFRCLAEDVGDVAFVKNDTVWENTNGESTADWAKNLNREDFRLLCLDGTRKPVTEAQSCHLAVAPNHAVVSRSDRAAHVKQVLLHQQALFGKNGKNCPDKFCLFKSETKNLLFNDNTECLAKLGGRPTYEEYLGTEYVTAIANLKKCSTSPLLEACAFLTR
[1]
  Mitogenic / proliferative effect on primary osteoblasts (in words): mitogenic to primary osteoblasts
  Dose (ug/mL): minimum dose range that stimulates osteoblast proliferation: 1 to 100 µg/mL
[2]; P<0.05 (post hoc Dunnett's test)
  Concentration with significant inhibition of osteoclast development: 50 µg/mL
[2]
  Inhibition of osteoclast development in a bone marrow culture (in words): inhibition of osteoclast development

B3: SEQ ID NO. 6: Bovine lactoferrin N-lobe, residues 1-280 of SEQ ID NO. 2, tryptic cleavage (protein, listed as Bos taurus)
chain: APRKNVRWCTISQPEWFKCRRWQWRMKKLGAPSITCVRRAFALECIRAIAEKKADAVTLDGGMVFEAGRDPYKLRPVAAEIYGTKESPQTHYYAVAVVKKGSNFQLDQLQGRKSCHTGLGRSAGWIIPMGILRPYLSWTESLEPLQGAVAKFFSASCVPCIDRQAYPNLCQLCKGEGENQCACSSREPYFGYSGAFKCLQDGAGDVAFVKETTVFENLPEKADRDQYELLCLNNSRAPVDAFKECHLAQVPSHAVVARSVDGKEDLIWKLLSKAQEKFGK
[1]
  Mitogenic / proliferative effect on primary osteoblasts (in words): mitogenic to primary osteoblasts
  Dose (ug/mL): minimum dose range that stimulates osteoblast proliferation: 1 to 100 µg/mL

B4: SEQ ID NO. 7: Bovine lactoferrin C-lobe, residues 345-689 of SEQ ID NO. 2, tryptic cleavage (protein, listed as Bos taurus)
chain: VVWCAVGPEEQKKCQQWSQQSGQNVTCATASTTDDCIVLVLKGEADALNLDGGYIYTAGKCGLVPVLAENRKSSKHSSLDCVLRPTEGYLAVAVVKKANEGLTWNSLKDKKSCHTAVDRTAGWNIPMGLIVNQTGSCAFDEFFSQSCAPGADPKSRLCALCAGDDQGLDKCVPNSKEKYYGYTGAFRCLAEDVGDVAFVKNDTVWENTNGESTADWAKNLNREDFRLLCLDGTRKPVTEAQSCHLAVAPNHAVVSRSDRAAHVKQVLLHQQALFGKNGKNCPDKFCLFKSETKNLLFNDNTECLAKLGGRPTYEEYLGTEYVTAIANLKKCSTSPLLEACAFLTR
[1]
  Mitogenic / proliferative effect on primary osteoblasts (in words): mitogenic to primary osteoblasts
  Dose (ug/mL): minimum dose range that stimulates osteoblast proliferation: 1 to 100 µg/mL

B5: full length recombinant human lactoferrin: Full-length recombinant human lactoferrin, comparator (protein, UniProt P02788 1-710, looked up)
chain: MKLVFLVLLFLGALGLCLAGRRRSVQWCAVSQPEATKCFQWQRNMRKVRGPPVSCIKRDSPIQCIQAIAENRADAVTLDGGFIYEAGLAPYKLRPVAAEVYGTERQPRTHYYAVAVVKKGGSFQLNELQGLKSCHTGLRRTAGWNVPIGTLRPFLNWTGPPEPIEAAVARFFSASCVPGADKGQFPNLCRLCAGTGENKCAFSSQEPYFSYSGAFKCLRDGAGDVAFIRESTVFEDLSDEAERDEYELLCPDNTRKPVDKFKDCHLARVPSHAVVARSVNGKEDAIWNLLRQAQEKFGKDKSPKFQLFGSPSGQKDLLFKDSAIGFSRVPPRIDSGLYLGSGYFTAIQNLRKSEEEVAARRARVVWCAVGEQELRKCNQWSGLSEGSVTCSSASTTEDCIALVLKGEADAMSLDGGYVYTAGKCGLVPVLAENYKSQQSSDPDPNCVDRPVEGYLAVAVVRRSDTSLTWNSVKGKKSCHTAVDRTAGWNIPMGLLFNQTGSCKFDEYFSQSCAPGSDPRSNLCALCIGDEQGENKCVPNSNERYYGYTGAFRCLAENAGDVAFVKDVTVLQNTDGNNNEAWAKDLKLADFALLCLDGKRKPVTEARSCHLAMAPNHAVVSRMDKVERLKQVLLHQQAKFGRNGSDCPDKFCLFQSETKNLLFNDNTECLARLHGKTTYEKYLGPQYVAGITNLKKCSTSPLLEACEFLRK
modifications: full-length recombinant
notes: Full-length recombinant human lactoferrin, comparator
[2]
  Inhibition of osteoclast development in a bone marrow culture (in words): inhibition of osteoclast development

B6: osteoprotegerin (protein, UniProt O00300 22-401, looked up)
Tumor necrosis factor …: ETFPPKYLHYDEETSHQLLCDKCPPGTYLKQHCTAKWKTVCAPCPDHYYTDSWHTSDECLYCSPVCKELQYVKQECNRTHNRVCECKEGRYLEIEFCLKHRSCPPGFGVVQAGTPERNTVCKRCPDGFFSNETSSKAPCRKHTNCSVFGLLLTQKGNATHDNICSGNSESTQKCGIDVTLCEEAFFRFAVPTKFTPNWLSVLVDNLPGTKVNAESVERIKRQHSSQEQTFQLLKLWKHQNKDQDIVKKIIQDIDLCENSVQRHIGHANLTFEQLRSLMESLPGKKVGAEDIEKTIKACKPSDQILKLLSLWRIKNGDQDTLKGLMHALKHSKTYHFPKTVTQSLKKTIRFLHSFTMYKLYQKLFLEMIGNQVQSVKISCL
[2]; positive inhibitor control, P<0.01 (post hoc Dunnett's test)
  Concentration with significant inhibition of osteoclast development: 0.01 µg/mL
